Columns and labels:
Assay in all cases: SEC; HiLoad 16/60 Superdex 75, 50 mM sodium phosphate pH 7.4, 50 µg sample, 0.6 mL/min, calibrated with mass standards; self-association of the free light chain (dimer)
[1] = molecular target: Bence Jones protein from AL-2 patient (human) (UniProt P01701)
[2] = molecular target: recombinant free immunoglobulin lambda light chain of AL amyloidosis patient AL-1 (human) (UniProt P01699)
[3] = molecular target: recombinant free immunoglobulin lambda light chain of AL amyloidosis patient AL-2 (human) (UniProt P01701)
[4] = molecular target: recombinant free immunoglobulin lambda light chain of AL amyloidosis patient AL-3 (human) (UniProt P01699)

“Bence Jones protein from AL-2 patient (from UniProt P01701 20-117) (natural protein)” gave a stoichiometry N [1] of 2.
With “recombinant free immunoglobulin lambda light chain of AL amyloidosis patient AL-1 (from UniProt P01699 20-117)” the stoichiometry N [2] was 2.
“recombinant free immunoglobulin lambda light chain of AL amyloidosis patient AL-2 (from UniProt P01701 20-117)” showed a stoichiometry N [3] of 2.
“recombinant free immunoglobulin lambda light chain of AL amyloidosis patient AL-3 (from UniProt P01699 20-117)” showed a stoichiometry N [4] of 2.

From article PMC3785434
